# From the DeepSol protein solubility set
# Assay: soluble on expression in E. coli; label from the status in PepcDB or PDB records
row,Sequence,soluble on expression in E. coli
1,GPGSMSYYCSGGHCLKYATPGREPPDPQLFPHYMQNAQNLWLHFSEWWPHGDGGSCPAPPTKGVVFIVPGLGEHTGRYDSVALRLNQEGYVVFSMDNQGTGGSEGERLYVECFTHFVDDVCAFVVFIQTRYAALKSQPTFLMGHSMGGLIATLVAQRDASGFRGVVLSGPALGLSKPVPCFMRSLAHFLSQWFPKLPVRKLDPDLVSYNTPVVQLVKQDPFYSNVTLRARFVDEMLIAQDRAAEAAGTSQFPFLIVHGEEDQLCSLETSKSFFKSALSEDKNLVSYPRAGHEVLTELCRAEVMAEVIKFIDERAR,not soluble
2,MAHHHHHHMAIACDSPVITLYKPRENGMIMPCHPEMSTVENIGQITDAHRLVPTAVRFSEDSQWVISAGEDETLAVSSVRKLKRVFVCTEFITRRHCMAFMNTFTSLCILASPPETSVLIIAACATDGTVVQWVVNPATSRSSYTKKLQLHLGALVAMDIMRDGTGS,not soluble
3,MSLKSDEVFAKIAKRLESIDPANRQVEHVYKFRITQGGKVVKNWVMDLKNVKLVESDDAAEATLTMEDDIMFAIGTGALPAKEAMAQDKMEVDGQVELIFLLEPFIASLK,soluble
4,MRGSHHHHHHTDPLPRLPVPPLQQSLDHYLKALQPIVSEEEWAHTKQLVDEFQASGGVGERLQKGLERRARKTENWLSEWWLKTAYLQYRQPVVIYSSPGVMLPKQDFVDLQGQLRFAAKLIEGVLDFKVMIDNETLPVEYLGGKPLCMNQYYQILSSCRVPGPKQDTVSNFSKTKKPPTHITVVHNYQFFELDVYHSDGTPLTADQIFVQLEKIWNSSLQTNKEPVGILTSNHRNSWAKAYNTLIKDKVNRDSVRSIQKSIFTVCLDATMPRVSEDVYRSHVAGQMLHGGGSRLNSGNRWFDKTLQFIVAEDGSCGLVYEHAAAEGPPIVTLLDYVIEYTKKPELVRSPMVPLPMPKKLRFNITPEIKSDIEKAKQNLSIMIQDLDITVMVFHHFGKDFPKSEKLSPDAFIQMALQLAYYRIYGQACATYESASLRMFHLGRTDTIRSASMDSLTFVKAMDDSSVTEHQKVELLRKAVQAHRGYTDRAIRGEAFDRHLLGLKLQAIEDLVSTPDIFMDTSYAIAMHFHLSTSQVPAKTDCVMFFGPVVPDGYGVCYNPMEAHINFSLSAYNSCAETNAARLAHYLEKALLDMRALLQSHPRAKLISEEDLSLISG,soluble
5,MSLKSKPVFRLVVAATGLCALPTWADGWPSWSPETAVVPYYFVSDSMGNTLGVAGLAKHVGQANASVLGTALYSDKGSYVTYLSATNYQVGDFWLLGAESYQGKFVDYDYYLGANASNDSTAADRTIATGKESITRFSFRYIVPWGHAAFRGARAALEPTRQIKGFSPDRSGITTIEFQPFHTSREINAIAGQDSDSSGLSLKLDWDNRNDVRNPTQGFRTRLDITYADENWGNDSDWLKYEYSSSGFWNLGGVDDLLDQQVFAFNFYIADTPTWNNCNTQTCQRPPEFDQVSLGGLYRLRSFSSGRFHGKSAINYSAEYRVLPKWQPLDDIPVLNIYDIPWWQWVAFVDMGRVSDESSFSELHSDMQWSAGGAVRFQVEGIVVRAEMAWGSEESLFRVMVNQEGHHHHHH,not soluble
6,MSWQEKINAALDARRAADALRRRYPVAQGAGRWLVADDRQYLNFSSNDYLGLSHHPQIIRAWQQGAEQFGIGSGGSGHVSGYSVVHQALEEELAEWLGYSRALLFISGFAANQAVIAAMMAKEDRIAADRLSHASLLEAASLSPSQLRRFAHNDVTHLARLLASPCPGQQMVVTEGVFSMDGDSAPLAEIQQVTQQHNGWLMVDDAHGTGVIGEQGRGSCWLQKVKPELLVVTFGKGFGVSGAAVLCSSTVADYLLQFARHLIYSTSMPPAQAQALRASLAVIRSDEGDARREKLAALITRFRAGVQDLPFTLADSCSAIQPLIVGDNSRALQLAEKLRQQGCWVTAIRPPTVPAGTARLRLTLTAAHEMQDIDRLLEVLHGNG,soluble
7,METRRDERIGRLAQALKKTDKLHLKDAAQLLGVSEMTVRRDLNADSTSVMLLGGYVVSDLKNNGVTNYFVSDQQTKHVREKQAIGTAAAYLVEANDTVFFDCGTTIPFIIDAIPDELLFTAICYSLNTFLALQEKKACRVILCGGEYHPDNAIFTPLNQRCELDNICPNKAFISAAGIELNAGATCFNFAELGMKQRAMATAQRIIIVADNSKFGQIKRACIGPMTLFDTVISDSAPSEPYLRYFSNNGIQLIHPGNLEHHHHHH,soluble
8,MGSDKIHHHHHHEVYIFTSHREPALDGLHYLYSYDGYHWDSIAGSWLKPEIGNKTPYYNYFTKQTEEQKYAPNSMMRDPSMTQGPDGTFHLVWTISWNGEQGFGYASSKDLIHWSEQREIKVMKDSLTNNVWAPEVFYDDEKEQFIVAWSSAIPVERYTAADSLGANKSHRAYYTTTKDFQTFTPAKAFYDPGFNSIDGFIVKRDKNDYVLIIKDNRKPGYSDLFCVSGPSAEGPYADPSVKFAPTYSEGPCAVKVGDEWLIYFDVYREGRFGAVSTKDFKNFTPIDDQISIPQGHKHGTIIEVPESVLLNLKAEEAKRFPQKD,not soluble
9,MSLVTFSIRIISSDRIFLVAEVKALERVYVIGHKNPDTDSVCSAIGYAHFKNNVEKGKTFIPARSGDLTNESLFVLKYFGMNPPLHIETLEPTVEDLELKNPIFVTPDTSAYDVAMLMESRGIKNVPVVSKEKMIGVVTESNIARVYVRRLKIEPLVIHPVPFDQLVRILKAEVVCDYMKEKTVSGKVHIAVDALHVLLGKIEIGDVVIVGDNEPAQIALLEKGAKLMIVVNNAPVSNRVLEIAKEKNAAVLRVKFDAFSAAKLINLSLPVTLVMSKKFPTVTKKDTLEEVKEIVFTSKIRAAFVEDEKGRLCGVITRTDLLKDVRKKVILVDHNEITQAPEGVEKAEILEIIDHHRLGGLSTLNPVFFYNEPVGSTSTIVAEFFLKNGVKMEREIAGILLSGIVSDTLFFKLSTTTEKDRKMANFLADVAKLDLEKFAKKLLKEGMKIPEDVDPAELLKRDVKVYEMGEESFAVSQIMTSDFSTLLKEKERFMNTLKTLKGEFGVKHFFVLFTNPVEEASLLMMDGDQKLVEKAFNAEKKDGLFLLKGVMSRKKDFVPKIGEVLRREREGHHHHHH,soluble
10,MTVYLRKAEPSDLPDILAIIEDGRRTLQKSGIPQWQNGDGPNQEILAKDIDQQTCYILMVEDALAGVGVLCSEIDPAYEAIFNGSWQPHSQTTYTAIHCVALKSSFQGQGLALVLLRSLVTAARLQGATDIRIDTHPQNLAMQHLIKKAGFVYQGDVILDVNDGERYAYQMILK,not soluble
11,MGSDKIHHHHHHEITDGVVRIGVLNDQTGVYAGLAGPGSVWAAKKAVQDFAPEKHGLKVEIVAADHQNKPDVGASIARRWFDVDKVDAIVDVPTSSVVLAVNQVAKEKNKVMIVTGGGTSDLTGKACTPNAIHWAYDTWALANGTGKAVVKSGGKSWFFVTADYAFGHSLERDTEAVVVKNGGKVLGKVRHPFPGNDFSSYLLQAQASKAQVVGLANAGGDTIGAVKQAAEFGVTAGGQKLAGLLVFSSDVQALGLKAAQGLLLSETWYWDMTDENRKFGKEFAAANNGKFPTMAQAGTYSAVIHYLKAVAAMKADGDGAAVVAKMKAMPTDDKLFGKGSIREDGRKIHPLYLFEVKKPSESKYAGDFYKLIATIPATEAFRPMEEGGCPLIGKKAS,not soluble
12,MGSDKIHHHHHHMTNWNLWRTLNMEYIINPCSGIKIKITRGQKIKIVDIEGGQVVDFFAEMKDDSTEFISPGVTIDCNESLRLQVGNLIYSNKYRPMFKILYDDVREHDLLHPCCRPEMYDFFYHNGENHPNCFDNINRTLGTSHQIIHPINFFMYTKVNTDGSIEVCEPLSKANDKIILEALENMTLGIAACSVSESSCNSRKCTSIKILVD,not soluble
13,MGSDKIHHHHHHEEGTSPINENTSNLPVSATADAQLKFAKLLSQAASGSIEVRNFLKKEALVQFDNDYDIFYPLIKDKKVFGNQSFRDILLSYCKEENELSQIEQSLPLLNIMVPDLTLFWDFNATTWDTSDKEISVLCRDDKNNTLYENGENIGNMTNGDIPGFPCLVVKNNERMKITSVNTRSGEATYEFISDAFDGSKKVQTRHYDADNDLEATEDLNKYVSKDVVATAINAWREFKNVPNACQRDYIYYGINKTNTPGSLNRNIREKLYRFRISATAFGRIADADGDQRLQDLTQTKRYLSNEEILQNIWTDGNFEFRFKSYIAGETNKDAMEHLLTFSVKAKDVFSIEKIHLHHKNGTAFRQSKNFYSVDINNLRSKWIYPEKLEPNKDNQVFTLPWDLYNKALSIHMYVEEFDVDQTIEKTITVVNEFTNKADFSIEGGGSIDSVKLSAKLGYGFSHTNTTTSSTKVTTTVGSDELGTLSFFFYDPIIRAESNNTYKLYDVSSGDVTATILPINLIITR,not soluble
14,MGSDKIHHHHHHMKKLLNTLYVTRQETYVHKERDTIVINSAGEKLAQFPALTISNILCFGQVSVSPPMMGYCGENGIGLVFYTEYGRFLARMIGKQTGNVLLRRTQYRLADDPEKANAIARVMVGAKIANARTVLMREIRNHGEHANISRAVEQLGYSLKSCQFSQSVPQTMGIEGDAAATYFSVFNGLIRGSRFQFNGRIRRPATDPVNALLSFIYSLITQECVSALMGVGLDPYVGFLHQDRPGRPSLALDLLEEFRASWADRFVLTLLNRRQLSPQAFVTEASGAVRLTDDTRKQVLVAFQERKQEEVVHPYLQEKVPYGLLPHCQALLLARHLRGDMEFYTPYLIK,not soluble
15,MGSDKIHHHHHHMKILMLCREPRLYSCQRLKQACQDRNIQLDILDPNRMLIKLAVIDAQMQAQLYYQAGEIYDKCRAEPSLLAEYDAVLPRFGVSSTMMGCRVLDYFAAKKVVILNNSTAFRLARDKWSSLQVLAAQHIPIPTSSFAGALFSTAAHISQHRIPLVIKTCSGSQGVGVMLSESKVHSVSLLQTLQQAKVDNLLQDFVVEARGQDIRAFVIGDRVVAAIERNGLENDFRANIHQGGSASVIQLNTAEQQLAVLAAKTIGLDVAGVDLIRSNKGLLVLEVNACPGLDGIEKASKLDIAGLIIDYLLAMKK,not soluble
16,MEDGDSAEAFRAFAAGVALQREDPSPLWVQLKNRIEHAILDGTLPENARLPSEQAMCSMFDLSRPVIRNALQALAGEGRVIKQPRKGMFVAPRAPELAFMTSALGVFDDLSAKGYKVTVKTYEFGLHPANEDERRVFKLPEGFQVIRALRVYHANETPLTHTLISLPAHRLPGFEKLDMEGRSIFGTIRELYGLTVARADRWLKGAIVPPEVAARMGVPPGGAMIAIESVAYDHDGNALEYYRAYYNSEVAPIHVATDAH,not soluble
17,MHNYLDFEKPISDLEGKILELKKLASEDESVNTSDEIARLEGRVRDAMVEIYSKLSPWQKTQVARHPSRPHFLDYASRLFTEFTPLAGDRNFANDDAIQAGLARFHGTPVAVIGQEKGNDTKSRIKHNFGSPRPEGYRKATRIMEMADRFGLPLITLVDTAGAYPGVNAEERGQAEAIARSTEMCLNVKVPIVTVVIGEGGSGGAIAIATGNRVYMLEHAIYSVISPEGAASILWRDSTRAKEAASNMKITAEDLKSLGVIDGIIPEPVGGAHRDPDAVISRTETVIGDALKELSARNGDELRADRRQKYLNIGRNL,not soluble
18,MVAVIIKGNEVAEKKRAQLKEEVVKLKEQGIVPGLAVILVGEDPASRSYVKGKEKGCEQVGIYSELIEFPETITEERLLAEIDRLNGDDRINGILVQLPLPKHIEEKAIIERISPEKDVDGFHPISVGRMMTGQDTFLPCTPHGIVELVKETNLDISGKHVVVIGRSNIVGKPVGQLFLNENATVTYCHSKTQNMKELTKLADILIVAVGRPKMVTADYIKEGAVVIDVGVNRLETGKLCGDVDFDNVLDVASYITPVPKGVGPMTITMLLHNTVESAKRAGVVCK,not soluble
19,MANKHHVYWYRHHIVNIIMIVDSKTSDWILIDTGLFYSEAFILKKIRRVLGELIPPKAIILTHGHFDHVGALRPLLQRFPNVPVYAHELELPFLTGQRHYVKPDPSVPGGLMAKLAWLYPYHAYDFSRIICPLPDDGTLPFFTDWRWIHTPGHTEGHVSLFRPSDRFLIAGDAFTTVKQESLLSVLAQKKEIHGPPAYFTPDWELAKTSVETLQKLEPAFAVTGHGQMMEGSSLHSGLKRLISQFEQVAVPDLEHHHHHH,soluble
